Source: article PMC5314372

How the values were obtained:
[1] = molecular target: N-terminally-truncated ΦAB6 tailspike protein (residues 136-699) (bacteriophage ΦAB6); assay: AUC; sedimentation at 20,000 rpm, Beckman XL-A, An-60 Ti rotor; 25 mM Tris-HCl, 300 mM NaCl, pH 8.0; analysed with SEDFIT
[2] = molecular target: N-terminally-truncated ΦAB6 tailspike protein (residues 136-699) (bacteriophage ΦAB6); assay: crystal structure; hanging-drop vapor diffusion at 20 °C; 1.0 M sodium malonate pH 7.0 or 0.9 M sodium citrate, 0.1 M sodium cacodylate pH 6.5; space group C2, one trimer in the asymmetric unit; free form and forms soaked with Ab-54149 polysaccharide
[3] = molecular target: bacteriophage ΦAB6 tailspike protein (bacteriophage ΦAB6); assay: SEC; analytical gel-filtration column, single peak; calibration curve of log MW versus Ve/V0 with five protein markers
[4] = molecular target: bacteriophage ΦAB6 tailspike protein (bacteriophage ΦAB6); assay: AUC; sedimentation at 20,000 rpm, Beckman XL-A, An-60 Ti rotor; 25 mM Tris-HCl, 300 mM NaCl, pH 8.0; analysed with SEDFIT

Substance | stoichiometry N [1] | stoichiometry N [2] | stoichiometry N [3] | stoichiometry N [4]
N-terminally-truncated ΦAB6 tailspike protein (residues 136-699) (domain or fragment) | 3 | 3 |  | 
bacteriophage ΦAB6 tailspike protein (enzyme) |  |  | 3 | 3
